# Ends that are not written are not given here.
# Legend:
# p65 = target: T1, p65 (Homo sapiens, UniProt Q04206); assay: Co-IP of p65 by SFB-tagged RL peptide in 293T cells; format: binding; conditions: 48 hours after transfection
# T1 construct: endogenous in cells; host or cells: 293T
# Experimental: FIGS. 10A-G. (A) Schematic diagram depicting a set of RB-N recombinant protein constructs. Western blot analysis of p65 proteins in PC-3 cells whole cell lysate pulled down by GST or GST-RB-N recombinant proteins. Stars indicate expected molecular weight. (B) Western blot analysis of in vitro transcribed and translated p65 proteins pulled down by GST or GST-RB recombinant proteins. Stars indicate expected molecular weight. (C) Western blot analysis of WCL and co-IP samples in 293T cells 48 h after transfected with indicated constructs. (D) Schematic diagram depicting an evolutionally conserved R-linker region in the N-terminal of RB. FIG. 10D discloses SEQ ID NOS 265 and 271-274, respectively, in order of appearance. (E) Western blot analysis of WCL and co-IP samples in 293T cells 48 hours after transfected with indicated constructs. (F) PC-3 cells were transfected with indicated plasmids. Western blot analysis of HA-RB proteins in PC-3 whole cell lysate pulled down by GST or GST-p65 recombinant proteins. Stars indicate expected molecular weight. (G) Schematic diagram depicting fully positively charged RB-N allows otherwise negatively charged by S249/T252 phosphorylation to bind to negatively charged 166FSLMV170 motif (SEQ ID NO: 286) in EID1. FIG. 10G discloses SEQ ID NOS 265-266 and 275, respectively, in order of appearance. […]
# [1] = test system: NF-κB site of the PD-L1 promoter; assay: EMSA with biotin-labeled PD-L1-prom oligonucleotide and PC-3 nuclear extracts; format: cell-based, human; conditions: PC-3 cells expressing peptide
# Excerpt: FIGS. 11A-H. (A) Heatmap showing differentially expressed genes (FDR<0.01) between palbociclib treatment versus DMSO and knockdown RB1 versus control. Gene expression values (FPKM) were Z-score normalized. FPKM, Fragments Per Kilobase of transcript per Million mapped reads. (B) UCSC Genome Browser screenshots of meta-analysis of published RB ChIP high throughput sequencing (ChIP-seq) data showing RB binding to CD274 (PD-L1) gene locus in K562 cells. PD-L1-prom oligonucleotide DNA containing NF-κB binding sequence was shown in the RB binding peak in the PD-L1 gene, the corresponding mutant PD-L1-prom oligonucleotide DNA was shown below. FIG. 11B discloses SEQ ID NOS 279-280, respectively, in order of appearance. (C) ChIP-qPCR analysis of RB binds at the PD-L1 promotor in PC-3 cells. All data were shown as mean values±SD (n=3). *** P<0.001. (D) ChIP-reChIP analysis examining the co-localization of p65 and RB in the PD-L1 promoters. All data were shown as mean values±SD (n=3). ** P<0.01. […]
# FIGS. 21A-N. Effect of RB depletion, cell cycle, and RB-N S249/T252 phospho-mimicking peptide on PD-L1 expression in cell lines of various cancer types. […] 48 hours after infection, PD-L1 expression was determined by western blotting (A), RT-qPCR (B), and FACS (C). […] (D) Pd-l1 protein and mRNA levels were determined by western blotting in primary SKO and DKO mouse prostate tumor cell lines. […]
# T1 sequence (Q04206 whole entry): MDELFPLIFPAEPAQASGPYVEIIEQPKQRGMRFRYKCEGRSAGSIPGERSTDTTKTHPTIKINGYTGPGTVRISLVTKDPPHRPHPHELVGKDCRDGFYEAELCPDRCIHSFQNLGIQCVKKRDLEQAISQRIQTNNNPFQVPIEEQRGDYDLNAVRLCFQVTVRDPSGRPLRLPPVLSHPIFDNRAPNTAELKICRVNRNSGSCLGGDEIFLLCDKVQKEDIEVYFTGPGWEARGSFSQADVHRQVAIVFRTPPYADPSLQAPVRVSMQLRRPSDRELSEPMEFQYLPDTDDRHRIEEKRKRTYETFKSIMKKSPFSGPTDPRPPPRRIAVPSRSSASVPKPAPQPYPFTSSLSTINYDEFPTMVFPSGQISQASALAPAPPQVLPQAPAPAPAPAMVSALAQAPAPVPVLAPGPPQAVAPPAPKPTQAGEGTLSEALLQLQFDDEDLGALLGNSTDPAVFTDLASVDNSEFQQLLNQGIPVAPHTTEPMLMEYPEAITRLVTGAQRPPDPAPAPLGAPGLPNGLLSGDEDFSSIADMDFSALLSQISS
substance,measurement,setting,value
"RL-S249D/T252D: S249/T252 phospho-mimicking R-Linker (RL) peptide: fragment of RB-N containing 21 amino acids surrounding S249/T252, expressed SFB-tagged or by lentivirus (NGDPRDPRRGQNRSARIAKQL; also: expressed SFB-tagged (tag left off))",immunoprecipitation of p65 by SFB-tagged RL peptide,p65,effectively immunoprecipitated
same,p65 binding to the cognate DNA in the PD-L1 promoter,[1],inhibition
